According to publication doi:10.1101/2020.05.19.103432:

What was measured:
[1] = molecular target: GltPh K55C/C321A/A364C mutant, cross-linked with HgCl2 (GltPh^IFS) (UniProt O59010); experiment: cryo-EM structure
[2] = molecular target: GltPh, fully functional seven-histidine mutant, referred to as wildtype (WT) (UniProt O59010); experiment: cryo-EM structure

stoichiometry N [1]	stoichiometry N [2]	Substance
3		GltPh K55C/C321A/A364C mutant, cross-linked with HgCl2 (GltPh^IFS) (from UniProt O59010 1-425) (natural protein)
	3	GltPh, fully functional seven-histidine mutant, referred to as wildtype (WT) (from UniProt O59010 1-417) (natural protein)
